In PMC9723635:

How the values were obtained:
RBPMS-A T/E [1] = experiment: UV crosslinking; conditions: 4 uM protein, with 20% HeLa nuclear extract, EMSA: 50 mM HEPES pH 7.2-7.9, 15 mM MgCl2, 25% glycerol, 5 mM DTT, 45 mM KCl, 5 ug tRNA, 20 fmol RNA, 25 min at 30 C, then 5 ug heparin 5 min at 30 C
RBPMS-A T/A = experiment: EMSA; conditions: apparent Kd, Hill fit; tRNA and heparin present; EMSA: 50 mM HEPES pH 7.2-7.9, 15 mM MgCl2, 25% glycerol, 5 mM DTT, 45 mM KCl, 5 ug tRNA, 20 fmol RNA, 25 min at 30 C, then 5 ug heparin 5 min at 30 C; 4% …
RBPMS-A T/E [2] = experiment: EMSA; conditions: apparent Kd, Hill fit; tRNA and heparin present; EMSA: 50 mM HEPES pH 7.2-7.9, 15 mM MgCl2, 25% glycerol, 5 mM DTT, 45 mM KCl, 5 ug tRNA, 20 fmol RNA, 25 min at 30 C, then 5 ug heparin 5 min at 30 C; 4% …

| Substance | binding signal (RBPMS-A T/E [1]) | Kd (RBPMS-A T/A) [nM] | Kd (RBPMS-A T/E [2]) [nM] |
| --- | --- | --- | --- |
| Tpm1 UV-crosslinking RNA | 7.8 % of WT | – | – |
| Tpm1 exon 3 upstream intron EMSA RNA (three tandem CAC motifs) | – | 268 | 756 |
